{
  "source": "the nanobody polyreactivity screen of Harvey et al. (2022)",
  "data": [
    {"experiment": "yeast display, Sf9 membrane polyspecificity reagent, FACS + sequencing; frameworks hold sequencing errors", "outline": "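In a synthetic yeast display library (Saccharomyces cerevisiae BJ5465), nanobody expression was induced with galactose for 36–48 hours. FACS gates were set low and high (top ~1%) using anti-HA fluorescence for expression and streptavidin fluorescence for binding of the Sf9 membrane reagent. Each polyreactivity label is drawn from the gate of origin.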", "values": [
      {"sequence": "QVQLVESGGGLVQAGGSLRLSCAASGFTIKYNTMGWYRQAPGKERELVAAITSNTGSTYYADSVKGRFTISRDNAKNTVYLQMNSLKPEDTAVYYCAVTSYYRRYGYWGQGTQVTVSS", "polyreactivity (PSR sort gate)": "high polyreactivity"},
      {"sequence": "QVQLVESGGGLVQAGGSLRLSCAASGFTINFYGMGWYRQAPGKERELVAAITASGGGSTYYADSVKGRFTISRDNAKNTVYLQMNSLKPEDTAVYYCNADYTGSFYTYDYWGQGTQVTVSS", "polyreactivity (PSR sort gate)": "low polyreactivity"},
      {"sequence": "QVQLVESGGGLVQAGGSLRLSCAASGFTIPYKAMGWYRHAPGKERELVAAISRSGTRTYYADSVKGRFTISRDNAKNTVYIQMNSLKPEDTAVYYCAKDTIGGASPHYYWGQGTQVTVSS", "polyreactivity (PSR sort gate)": "high polyreactivity"},
      {"sequence": "QVQLVESGGGLVQAGGSLRLSCAASGFTIRLYAMGWYRQAPGKERELVAAITSGGSTYADSVKGRFTISRDNAKNTVYLQMNSLKPEDTAVYYCNAEALVNGGYDYWGQGTQVTVSS", "polyreactivity (PSR sort gate)": "high polyreactivity"},
      {"sequence": "QVQLVESGGGLVQAGGSLRLSCAASGFTIRRNAMGWYRQAPGKERELVAAISDRGGSTYYADSVKGRFTISRDTAKNTVYFQMTSLKPEDTAVYYCAAEPYAGPELDYWGQGTQVTVSS", "polyreactivity (PSR sort gate)": "high polyreactivity"},
      {"sequence": "QVQLVESGGGLVQAGGSLRLSCAASGFTIRRYAMGWYRQAPGKERELVAAITRSAGSTYYADSVKGRFTISRDNAKNTVYLQMNSLKPEDTAVYYCAARWTRWGADSGYYWGQGTQVTVSS", "polyreactivity (PSR sort gate)": "high polyreactivity"},
      {"sequence": "QVQLVESGGGLVQAGGSLRLSCAASGFTIRYYTMGWYRQAPGKERELVAAITWSGGRTYYADSVKGRFTISRDNAKNTVYLQMNSLKPEDTAVYYCAADVTKRASRDYYWGQGTQVTVSS", "polyreactivity (PSR sort gate)": "high polyreactivity"},
      {"sequence": "QVQLVESGGGLVQAGGSLRLSCAASGFTISYYAMGWYRQAPWKERELVASISSSGGRTYYADSVKGRFTISRDNAKNTVYLQMNSLKPEDTAVYYCAAVGGRSTRGYYWGQGTQVTVSS", "polyreactivity (PSR sort gate)": "high polyreactivity"},
      {"sequence": "QVQLVESGGGLVQAGGSLRLSCAASGFTITNYAMGWYRQAPGKERELVAAISTGGGRTYYADSVKGRFTISRDNAKNTVYLQMYSLKPEDTAVYYCAVVPYNISKTEQPGMDYWGQGTQVTVST", "polyreactivity (PSR sort gate)": "high polyreactivity"},
      {"sequence": "QVQLVESGGGLVQAGGSLRLSCAASGFTITRNTMGWYRQAPGKERELVAAITRGGSTNYADSVKGRFTISRDNAKNSVYLQMNSLKPEDTAVYYCNKGRNVVLVRTADDYWGQGTQVTVSS", "polyreactivity (PSR sort gate)": "low polyreactivity"},
      {"sequence": "QVQLVESGGGLVQAGGSLRLSCAASGFTIWWYAMRWYRQATGKERELVATITSGGRTYYADSVKGRFTISRDNAKNTDYLQMNSLKPEDTAVYYCAAESEVGYVYDPMYYWGQGTQVTVSS", "polyreactivity (PSR sort gate)": "high polyreactivity"},
      {"sequence": "QVQLVESGGGLVQAGGSLRLSCAASGFTIYAYTMGWYRQAPGKERDLVASITSRGGTTYYADSVKGRFTISRDNEKNTVYLQMNSLKPEDTAVYYCNARGYFGWYAMDYCGQGTQVTVSS", "polyreactivity (PSR sort gate)": "high polyreactivity"},
      {"sequence": "QVQLVESGGGLVQAGGSLRLSCAASGFTIYGNAMGWSRQAPGKERELVAAITWRGGSTYYADSVKGRFTISRDNAKNTVYLQMNSLKPEDTAVYYCAARWLLGYYRYDYWGQGTQVTVSS", "polyreactivity (PSR sort gate)": "high polyreactivity"},
      {"sequence": "QVQLVESGGGLVQAGGSLRLSCAASGFTIYGYVMGWYRQAPGKERELVAAISWSGGSTYYADSVKGRFTISRDNAKNTVYLQMNSLKPEDTAVYYCAAEGWSDYTSRLYDYWGQGTQVTVSS", "polyreactivity (PSR sort gate)": "low polyreactivity"},
      {"sequence": "QVQLVESGGGLVQAGGSLRLSCAASGFTIYNNVMVWYRQAPGKERELVAAITSSGGRTYYADSVKGRFTISRDIAKNTVYLQMNSLKPEDTAVYYCNALYFRKGGYWGQGTQVTVSS", "polyreactivity (PSR sort gate)": "high polyreactivity"},
      {"sequence": "QVQLVESGGGLVQAGGSLRLSCAASGFTIYYYAMGWDRQAPGKERELVASITSGGSTYYADSVKGRFTISRDNAKNTVYLQMNSLKPEDTAVYYCAADYYSPSLRYDYWGQGTQVTVSS", "polyreactivity (PSR sort gate)": "low polyreactivity"},
      {"sequence": "QVQLVESGGGLVQAGGSLRLSCAASGFTLADNTMGWYRQAPGKERQLVATISSDGNTNYADSVKGRFTISRDNAKNTVYLQMNSLKPEDTAVYYCNAEGVFGDVRSGFYWYDYWGQGTQVTVSS", "polyreactivity (PSR sort gate)": "low polyreactivity"},
      {"sequence": "QVQLVESGGGLVQAGGSLRLSCAASGFTLDDNGMGWYRPAPGKECELVESITWSGGSTDYADSVKGRFTISRDTAKNTVYLQMNSLKPEDTAVYSCNVGDPIGGFLSYWGGDYWGQGTQVTVSS", "polyreactivity (PSR sort gate)": "low polyreactivity"},
      {"sequence": "QVQLVESGGGLVQAGGSLRLSCAASGFTLFANVMGWYRQAPGKERELVAAISWRSGNTYYADSVKGRFTISRDNAKNTVYLQMNSLKPEDTAVYYCAADTTGDQHSWGTSGIIEGDYWGQGTQVTVSS", "polyreactivity (PSR sort gate)": "low polyreactivity"},
      {"sequence": "QVQLVESGGGLVQAGGSLRLSCAASGFTLFQNAMGWYRQAPGKERELVAAISTGGSTYYADSVKGRFTISRDNAKNTVYLQMNSLKPEDTAVYYCAAVWPYRGSRKYYSWGQGTQVTVSS", "polyreactivity (PSR sort gate)": "high polyreactivity"},
      {"sequence": "QVQLVESGGGLVQAGGSLRLSCAASGFTLFTNAMGWYRQAPWKERELLARISRGGSTKYADSVKGRFTISRDNAKNTVYLQMNSLKREDTAVYSCATGYYGYRYGYWGQGTQVTVSS", "polyreactivity (PSR sort gate)": "high polyreactivity"},
      {"sequence": "QVQLVESGGGLVQAGGSLRLSCAASGFTLGVYTMGGSRQAPGKVRELVARITSGGRTYSADSVKGRFTISRDNAKNSVYLQMNSLQPEDTAVYYCAKVDGRRTYYTVHRYERDYWGQGTQVTVSS", "polyreactivity (PSR sort gate)": "low polyreactivity"},
      {"sequence": "QVQLVESGGGLVQAGGSLRLSCAASGFTLIHYAMGWYRQATGKERELVAGITTSGGSTYYADSVKGRFTFSRDNAKNTVYLQMTSLKPEDTAVYYCNRLTRRWYSLRSYDYWGQGTQVTVSS", "polyreactivity (PSR sort gate)": "high polyreactivity"},
      {"sequence": "QVQLVESGGGLVQAGGSLRLSCAASGFTLKQYAMGWYRQAPGKERELVAAIRWSGGSTNYADSVKGRFTISRDNAKNTVYLQMNSLKPEDTAVYYCAADFRTPYFGIRYGYWGQGTQVTVSS", "polyreactivity (PSR sort gate)": "high polyreactivity"},
      {"sequence": "QVQLVESGGGLVQAGGSLRLSCAASGFTLLGYAMGWYRQAPGKERELVAAISYSGVSTDYADSVKGRFTISRDNAKNTVYLQMNSLKPEDTAVSYCIAVSTDSFLQDYNYWGQGTQVTVSS", "polyreactivity (PSR sort gate)": "low polyreactivity"},
      {"sequence": "QVQLVESGGGLVQAGGSLRLSCAASGFTLQQYTMGWYRQAPGKERELVAAISTSGVRTYYADSVKGRFTISRDNAKNTVYLQMNSLKPEDTAVYYCNAKVRKSRFYYWGQGTQVTVSS", "polyreactivity (PSR sort gate)": "high polyreactivity"},
      {"sequence": "QVQLVESGGGLVQAGGSLRLSCAASGFTLRVNAMGWYRHPPGKERELVAAISDSGGDTYYADSVKGRFTISRDNAKNTVYLQMNSLKPEDTAVYYCAADDGSENDYWGQGTQVTVSS", "polyreactivity (PSR sort gate)": "low polyreactivity"},
      {"sequence": "QVQLVESGGGLVQAGGSLRLSCAASGFTLTQNAMGWYRQAPGKERELVAAISRSGGRTYYADSVKGRFTISRDNAKNTVYLQMNSLKPEDTAVYYCNAYVTYPGTTMDDWGQGTQVTVSS", "polyreactivity (PSR sort gate)": "high polyreactivity"},
      {"sequence": "QVQLVESGGGLVQAGGSLRLSCAASGFTLVKYVMGWYRQAPGKERELVAAINRSGTSTYYADSVKGRFTISRDNAKNTVYLQMNCLKPDDTAVYYCAADRSRNFDWGQGTQVTVSS", "polyreactivity (PSR sort gate)": "high polyreactivity"},
      {"sequence": "QVQLVESGGGLVQAGGSLRLSCAASGFTLWLNAMGWYRQAPGKERELLAAITTSDDGTYYADSVKGRFTISRDNAKNTVYLQMNSLKPEETAVYYCAADYYSVQYDYWGQGTQVTVSS", "polyreactivity (PSR sort gate)": "low polyreactivity"},
      {"sequence": "QVQLVESGGGLVQAGGSLRLSCAASGFTLWLYAMGWYRQAPGKERELVATISYRGDSTYYADSVKGRFTISRDNAKNTVYLQMNSLKPEDTAVYYCARRYTHTGRYYYWGQGTQVTVSS", "polyreactivity (PSR sort gate)": "high polyreactivity"},
      {"sequence": "QVQLVESGGGLVQAGGSLRLSCAASGFTLWYYAMGWYRQAPGKERELVAGINSGGRTYYADSVKGRFTISRDNAKNTVYLQMNSLKPEDTAVYNCNARAWSSISHNSYIMDYWGQGTQVTVSS", "polyreactivity (PSR sort gate)": "high polyreactivity"},
      {"sequence": "QVQLVESGGGLVQAGGSLRLSCAASGFTLYRNAMGWNRQAPGKERELVAAISSSGGRTYYADSVKGRFTISRDNAKNTVYLQMNSLKPEDTAVYYCAADFYRYGPQLGYWGQATQVTVSS", "polyreactivity (PSR sort gate)": "high polyreactivity"},
      {"sequence": "QVQLVESGGGLVQAGGSLRLSCAASGFTPGNVMGWYRQAPGKERELVAAISWSGDSTYYADSVKGRFTISRDNAKNTVYLQMNSLKPEDTAVYYCAARVVGSYRKTYPYGLYYWGQGTQVTVSS", "polyreactivity (PSR sort gate)": "high polyreactivity"},
      {"sequence": "QVQLVESGGGLVQAGGSLRLSCAASGFTSCDNDMGWYRQAPGKERELVAAISRGGSTNYADSVKGRFTISRDNAKNTVYLQMNSLKPEDTAVYYCATAAVTPVWYDYWGKGTQVTVSS", "polyreactivity (PSR sort gate)": "low polyreactivity"},
      {"sequence": "QVQLVESGGGLVQAGGSLRLSCAASGFTSRRYVMGWYRQAPGKERELVAAISSRGTSTYYADSVKGRFTISRDNAKNTVYLKMNSLKPEDTAVYYCAAVIRGRTRWLKYDYWGQGTQGTVSS", "polyreactivity (PSR sort gate)": "high polyreactivity"},
      {"sequence": "QVQLVESGGGLVQAGGSLRLSCAASGFTSSRNAMGWYRQAPGKERELVAAISSGTSTNYADSVKGRFTISRDNAKNTVYLQMNSLKPEDTAVYYCAAGSYSRYLYSLYFDFDYWGQGTQVTVSS", "polyreactivity (PSR sort gate)": "low polyreactivity"},
      {"sequence": "QVQLVESGGGLVQAGGSLRLSCAASGFTSSYYAMGWYRQAPGKERELVAAISSSGGSTYYADSVKGRFTISRDNAKNTVYLQMNSLKPEDTAVYYCAAARRERAGRQYDYWGQGTQVTVSS", "polyreactivity (PSR sort gate)": "low polyreactivity"},
      {"sequence": "QVQLVESGGGLVQAGGSLRLSCAASGFTSWHNDMGRYRQATGKERELVAAIDTGTGTYYADSVKGRFTISRDNAKNTVYLQLYSLKPEDTAVYYCAKDDLLVVRIVWFDYWGLGTQVTVSS", "polyreactivity (PSR sort gate)": "low polyreactivity"},
      {"sequence": "QVQLVESGGGLVQAGGSLRLSCAASGFTVGVYAMGWYRQAPGKERELVAAISSGGSTNYADSVKGRFTISRDNAKNTVYLQMNSLKPEDTAVYYCAADAVSGGQGTADYDYWGQGTQVTVSS", "polyreactivity (PSR sort gate)": "low polyreactivity"},
      {"sequence": "QVQLVESGGGLVQAGGSLRLSCAASGFTVGVYAMGWYRQAPGKERELVAAISSGGSTNYADSVKGRFTISRDNAKNTVYLQMNSLKPEDTAVYYCAKDVWYLVYYHWKSNRVWQYDYWGQGTQVTVSS", "polyreactivity (PSR sort gate)": "low polyreactivity"},
      {"sequence": "QVQLVESGGGLVQAGGSLRLSCAASGFTVGYYAMAWYRQAPGKERELVAAISYVGGTTYYADSVKGRFTISRDNAKKTVYLQMNSLKPEDTAVYYCATLYRGSVRYYYWGQGTQVTVSS", "polyreactivity (PSR sort gate)": "high polyreactivity"},
      {"sequence": "QVQLVESGGGLVQAGGSLRLSCAASGFTVWYYAMGWYRQAPGKVRELVASISSIGGSTYYADSVKGRFTISRENAKNTVYLQMNSLKPEDTAVYYCAARYKFLRGVVRRDYWGQGTQVTVSS", "polyreactivity (PSR sort gate)": "high polyreactivity"}
    ]}
  ]
}
